Reference: US10961289B2, “Small molecules blocking histone reader domains” (The University of Copenhagen, priority 2015, dated 2021)
Each block holds one substance with its values, some of them ahead of it. Where no end group is shown, it is not given here.

Columns and labels:
[1] = biological target: T1, TONSL ARD (Homo sapiens, UniProt Q96HA7); assay: ITC of TONSL ARD binding to histone peptides; settings: ITC (FIG. 13); for H4K20me1/2 also peptide pull-downs
T1 construct: GST (N); made in house; host or cells: E. coli BL21(DE3)-RIL
T1 sequence (Q96HA7 512-692): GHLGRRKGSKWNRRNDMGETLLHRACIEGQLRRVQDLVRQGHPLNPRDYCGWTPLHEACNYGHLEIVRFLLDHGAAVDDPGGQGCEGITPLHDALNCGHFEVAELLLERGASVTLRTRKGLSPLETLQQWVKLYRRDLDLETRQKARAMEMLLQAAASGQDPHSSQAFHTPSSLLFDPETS
Description: All the ITC titrations were performed on a Microcal ITC 200 calorimeter at 25° C. […] The exothermic heat of the reaction was measured by 17 sequential 2.2 μl injections of the peptides (1.41 mM in buffer 20 mM Tris pH 7.5 and 0.5 M NaCl) into 200 μl of the TONSL ARD solution (145 μM in the same buffer), spaced at intervals of 150 s. The data were processed with Microcal Origin software and the curves were fit to a single […] binding model.

[2] = biological target: T2, TONSL acidic stretch and ARD (450-692) (Homo sapiens, UniProt Q96HA7); assay: ITC analysis of TONSL acidic stretch and ARD with histone peptides; format: binding; settings: ITC (FIG. 35)
T2 construct: ITC analysis of TONSL acidic stretch and ARD (aa. 450-692); made in house; host or cells: E. coli BL21(DE3)-RIL
T2 sequence (Q96HA7 450-692): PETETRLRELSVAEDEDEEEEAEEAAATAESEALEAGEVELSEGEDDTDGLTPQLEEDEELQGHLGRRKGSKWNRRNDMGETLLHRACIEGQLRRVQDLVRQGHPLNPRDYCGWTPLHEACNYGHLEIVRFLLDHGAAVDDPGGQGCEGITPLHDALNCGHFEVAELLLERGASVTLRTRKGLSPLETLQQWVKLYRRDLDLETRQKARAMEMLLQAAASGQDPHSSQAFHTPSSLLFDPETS

[3] = biological target: T3, TONSL ARD (amino acid 512-692 of TONSL of SEQ ID NO: 16) (Homo sapiens, UniProt Q96HA7); assay: Native MS analysis of protein-peptide complexes; format: binding; settings: 10 μM TONSL-ARD, 50 mM NH4OAc pH 7.5
T3 construct: GST (N, cleaved yes); made in house; host or cells: E. coli BL21(DE3)-RIL
T3 sequence (Q96HA7 512-692): T1 sequence (Q96HA7 512-692)
Description: Various peptides were obtained including the peptides described in Examples 11, 12, 13, 14 and 15. If the peptide was in the form of a trifluoroacetate salt (TFA salt), it was desalted on a polymeric weak cation exchange sorbent (Strata X-CW, Phenomenex, Sartrouville, France): Dry peptide (1-3 μmol) were solubilized in 200 μL pure water (Sigma-Aldrich, Lyon, France). The pH of the solution was adjusted to 7-7.5 by addition of 1 mM aqueous ammonium hydroxide solution (solution freshly prepared from 20% concentrated ammonium hydroxide). The exchange column was conditioned with 1 mL methanol (Sigma-Aldrich, Lyon, France) followed by 1 mL water. The solution was injected and the column was washed twice with 500 μL pure water. Finally the peptide was eluted by gravity with 2 times 500 μL of a 20:80:5 acetonitrile/water/formic acid mixture. The elution fraction containing the expected peptide was identified by mass spectrometry. The TFA-free solution was freeze-dried to get a white solid. The solid was dissolved in 300 μL pure water and the solution was freeze-dried for a second time.
A stock solution of the peptide was prepared by adding 300 μL of pure water to the resulting solid and the concentration of the solution was measured by UV at a wavelength of 205 nm. The extinction coefficient for the corresponding peptide sequence was calculated using the Nick Anthis online protein parameter calculator script (http://nickanthis.com/tools/a205.html). The absence of TFA adducts was confirmed by mass spectrometry with infusion of the protein-peptide mixture at low acceleration voltage (Vc 25 V) in native conditions.
Purified TONSL ARD (i.e. amino acid 512-692 of TONSL of SEQ ID NO: 16) was buffer exchanged against 500 mM NH4OAc pH 7.5 using a NAP 5 column (NAP™-5, GE Healthcare). Bradford protein quantitation was performed on buffer exchanged protein. […]
The mass spectrometry (MS) analysis were carried out on an electrospray time-of-flight mass spectrometer (LCT, Waters, Manchester, UK) equipped with an automated chip-based nanoESI device (Triversa Nanomate, Advion Biosciences, Ithaca, N.Y.). […] Mass spectra were recorded using reduced cone voltage (Vc=50 V) and elevated interface pressure (Pi=5 mbar) which correspond to fine-tuned instrumental settings providing sufficient ion desolvation while preserving the integrity of weak non-covalent complexes in the gas phase. […]
The proportion of 1:1 stoichiometry complex is calculated according to the following equation: […]
To estimate the binding affinities (Kd) of peptides for TONSL-ARD, a mixture of protein/peptide was analyzed at a constant peptide to protein ratio with decreasing protein concentration until the lowest detection limit was reached. […]

Substance: H4 tail (9-25): unmodified histone H4 peptide, residues 9-25 (KGLGKGGAKRHRKVLRD; listed as Homo sapiens)
binding to TONSL ARD [1]: can bind TONSL ARD
binding to TONSL (450-692) [2]: recognizes

Substance: KGGAKRHRKVLR-NH2 [Example 13]
% P1L1 (proportion of 1:1 stoichiometry protein-peptide complex) [3]: 89.9%

Substance: KGGAKRHAKVLR-NH2 [Example 14]
% P1L1 (proportion of 1:1 stoichiometry protein-peptide complex) [3]: 73.3%

Substance: AKRHRKVLR-NH2 [Example 12]
% P1L1 (proportion of 1:1 stoichiometry protein-peptide complex) [3]: 62.6%

Substance: H3K9me1 (1-21): histone H3K9me1 (aa. 1-21) peptide
binding to TONSL (450-692) [2]: does not bind

Substance: KGGAARHRKVLR-NH2 [Example 15]
% P1L1 (proportion of 1:1 stoichiometry protein-peptide complex) [3]: 81.4%

Second part, the substance after the results:

binding to TONSL ARD [1]: incompatible with TONSL binding
Substance: H4K20me2: histone H4 (residues 9-25) peptide with di-methylation on Lys20 (GLGKGGAKRHRKVLRDN) [Example H4K20me2]

binding to TONSL ARD [1]: totally disrupts binding with TONSL ARD
Substance: H18W: histone H4 (residues 9-25) peptide with His18 mutated to Trp18 (GLGKGGAKRWRKVLRDN) [Example H18W]

binding to TONSL ARD [1]: incompatible with TONSL binding
Substance: H4K20me1: histone H4 (residues 9-25) peptide with mono-methylation on Lys20 (GLGKGGAKRHRKVLRDN) [Example H4K20me1]
